Experiments:
[1] = test system: pressure overload hypertrophy and heart failure; assay: Transaortic banding (TAB) pressure overload in JP2NT-OE mice; type: in vivo, mouse
Method: Animal experiments were performed in accordance with the Guide for the Care and Use of Laboratory Animals (National Institutes of Health publication 85-23, revised 1996) and were approved by the Institutional Animal Care and Use Committee at the University of Iowa. Cardiac specific JP2NT overexpression vector was constructed by subcloning mouse JP2NT cDNA (Guo et al., 2015) into a tet-operated αMHC transgenic vector, as described previously (Guo et al., 2014). The oocyte injection of transgenic vectors was carried out by University of Iowa transgenic core. The injected oocytes were transferred to pseudopregnant recipients. Transgenic offsprings were backcrossed with C57BL/6J mice for >9 generations to generate transgenic mice in a C57BL/6J background. These transgenic mice were crossed with αMHC-tTA (C57 background) (Guo et al., 2014) to generate double transgenic mice (JP2NT-OE) carrying both αMHC-JP2NT and αMHC-tTA. The non-overexpression single transgenic littermates were used as control. PCR was used to determine the genotype of transgenic mice. Nine to 10-wk-old male JP2NT-OE mice and their control littermates were subjected to pressure overload by transaortic banding (TAB) surgery, as described (Guo et al., 2014). Transthoracic echocardiograms were performed with conscious mice in the University of Iowa Cardiology Animal Phenotyping Core Laboratory, using a Vevo 2100 Imager (Visual Sonics), as described previously (Cheng et al., 1993).

[2] = test system: MEF2C Response Element (MRE) from the desmin enhancer; assay: Gel shift assay with MEF2 response element; type: binding; details: purified protein
From the text: FIGS. 12A-E. JP2NT represses MEF2-mediated transcription by competing for the MEF2 Response Element (MRE). A) Enrichment of MEF2 binding motifs in ChIP-seq dataset. B) Gel shift assay of JP2NT binding to a desmin promoter-derived DNA sequence containing a WT or mutated MRE in vitro. C) Co-immunoprecipitation of HA-tagged JP2NT binding to MEF2C or Histone H3. D) & E) MEF2 activity assays in 293T cells co-transfected with luciferase under the control of an MRE, MEF2C and WT JP2NT (D) or a mutant lacking the ARR (E, JP2NT^ΔARR). n≥3 independent batches of cells; in each batch of experiments, 3 replicates were performed for each transfection; **p<0.01 vs. Ad-Empty.
The MEF2 family, master regulators of hypertrophic genes in cardiomyocytes, binds to the A/T enriched consensus sequence (C/TTA(A/T)4TA G/A), which shares the same core sequence with TATA box. Thus, it was hypothesized that JP2NT directly interacts with MEF2 binding sites.

HEK293T cells = assay: Subcellular localization by confocal imaging; type: cell-based; details: HEK293T cells and cardiomyocytes
Method: Immunofluorescence was done as described previously (Guo et al., 2015). A Zeiss confocal microscope LSM510 was used for recording cell images.
To Investigate the molecular mechanism of JP2NT nuclear importation, an in silico analysis (Sigrist et al., 2002) was performed. […] These domains are evolutionarily conserved among species (FIGS. 18B-C). […] Indicating this NLS is Indispensable for nuclear localization of JP2NT. A fusion protein containing mCherry and the bNLS peptide with the ARR was imported into nuclei (FIG. 16D).

[3] = test system: cultured adult murine cardiomyocytes; assay: Affymetrix Genechip analysis of cultured cardiomyocytes; type: cell-based, mouse
Method: Genecarrior-1 (Epoch Lab) was used to transfect plasmids into HEK293T cells. Isolation and culture of cardiomyocytes were performed as described previously (Guo et al., 2015). Adenoviruses were applied at a multiplicity of infection (MOI) of about 100, which results in transfection of almost all cells as confirmed by immunostaining of eptiope tags.
Microarray assay was performed by Affymetrix GeneChip® Mouse Genome 430 2.0 according to the standard procedure of cRNA preparation and Genechip hybridization. The R package limma (version 3.22.7) (Ritchie et al., 2015) was used for processing microarray data and identifying differentially expressed genes (the cutoff of significance was p value<0.01). David (Huang et al., 2009) was used for gene enrichment (GO) analysis. Ingenuity pathway analysis (IPA, Qiagen) was used for pathway analysis.

[4] = test system: promoters of Myc, KLF6, TGFβR1 and NFKBIA; assay: Promoter luciferase reporter assay; type: cell-based; details: co-expression; vs empty vector control
Method: Firefly and Renilla reporter plasmids and JP2NT variants were co-transfected into HEK293 cells. The protein of the cells was harvested 48 hours after transfection. Promega dual luciferase system was used to evaluate the luciferase activity.
To further test whether JP2NT regulates transcription of these genes, luciferase reporters controlled by promoters of Myc, KLF6, TGFβR1 and NFKBIA were constructed.

[5] = after TAB, relative to controls

B1: JP2NT: shorter form of Junctophilin-2 including the first 565 amino acids of N-terminus of JP2 (protein, UniProt Q9BR39 1-565, looked up, fragment)
chain: MSGGRFDFDDGGAYCGGWEGGKAHGHGLCTGPKGQGEYSGSWNFGFEVAGVYTWPSGNTFEGYWSQGKRHGLGIETKGRWLYKGEWTHGFKGRYGIRQSSSSGAKYEGTWNNGLQDGYGTETYADGGTYQGQFTNGMRHGYGVRQSVPYGMAVVVRSPLRTSLSSLRSEHSNGTVAPDSPASPASDGPALPSPAIPRGGFALSLLANAEAAARAPKGGGLFQRGALLGKLRRAESRTSVGSQRSRVSFLKSDLSSGASDAASTASLGEAAEGADEAAPFEADIDATTTETYMGEWKNDKRSGFGVSERSSGLRYEGEWLDNLRHGYGCTTLPDGHREEGKYRHNVLVKDTKRRMLQLKSNKVRQKVEHSVEGAQRAAAIARQKAEIAASRTSHAKAKAEAAEQAALAANQESNIARTLARELAPDFYQPGPEYQKRRLLQEILENSESLLEPPDRGAGAAGLPQPPRESPQLHERETPRPEGGSPSPAGTPPQPKRPRPGVSKDGLLSPGAWNGEPSGEGSRSVTPSEGAGRRSPARPATERMAIEALQAPPAPSREPEVALYQG
modifications: GST or adenoviral forms
notes: shorter form of Junctophilin-2 including the first 565 amino acids of N-terminus of JP2
[1]; 3 weeks after TAB, relative to controls
  cardiac function (ejection fraction): improved cardiac function
[1]; JP2NT OE mice
  pressure overload induced heart failure: resistant
[1]; [5]
  heart weight/body weight ratio: lower
  lung edema (lung weight/body weight ratio): reduced lung edema
[1]; baseline, no TAB
  cardiac morphology or function at baseline: no effect
[2]
  interaction with MEF2C Response Element (MRE): interacts
HEK293T cells
  nuclear localization / nuclear importation: highly enriched in nuclei
[3]
  differentially expressed genes mapped to genomic loci bound in ChIP-seq: about 74%
[3]; IPA of differentially expressed genes
  ERK/MAPK, NF-κB, TGF-β and integrin signaling pathways (Ingenuity Pathway Analysis): predicted to be inhibited
[3]; vs Ad-Empty control
  significantly induced known genes (p<0.01): 574 genes
  significantly repressed known genes (p<0.01): 1996 genes
[4]
  promoter activity (firefly luciferase): significantly attenuated

Source: US11351270B2, “Junctophilin-2 fragments and uses therefor” (University of Iowa Research Foundation, priority 2016, dated 2022)
